The values below come from article PMC3351183 (Nucleic Acids Research, 2012).

Series [1] concerns the molecule itself. The experiment in a line: SEC.
Series [2] concerns the molecule itself. The experiment in a line: crystal structure.

B1: GB1_HP0315 (HP0315, a VapD protein from Helicobacter pylori, fused with the immunoglobulin-binding domain of streptococcal protein G) (natural protein, Helicobacter pylori 26695)
chain: MYALAFDLKIEILKKEYGEPYNKAYDDLRQELELLGFEWTQGSVYVNYSKENTLAQVYKAINKLSQIEWFKKSVRDIRAFKVEDFSDFTEIVKS
Turning to B1, the “stoichiometry N” value in series [1] came to 2.

B2: SeMet-substituted GB1_HP0315 (natural protein, Helicobacter pylori 26695)
chain: MYALAFDLKIEILKKEYGEPYNKAYDDLRQELELLGFEWTQGSVYVNYSKENTLAQVYKAINKLSQIEWFKKSVRDIRAFKVEDFSDFTEIVKS
modifications: selenomethionine in place of methionine (first methionine residue of GB1 and the methionine residue of HP0315)
B2: in series [2], the binding result is given as “binds”.
